Read-outs that look alike come from different tables or passages of the source.

Holding throughout (test): phage panning
The target of experiment [1] is T1, recombinant human β-Klotho (human, UniProt Q86Z14 53-996, limits assumed, biotinylated in the AlphaScreen assays (site not stated)).
T1 construct: also called rhβ-klotho; huβKlotho-His
T1 sequence: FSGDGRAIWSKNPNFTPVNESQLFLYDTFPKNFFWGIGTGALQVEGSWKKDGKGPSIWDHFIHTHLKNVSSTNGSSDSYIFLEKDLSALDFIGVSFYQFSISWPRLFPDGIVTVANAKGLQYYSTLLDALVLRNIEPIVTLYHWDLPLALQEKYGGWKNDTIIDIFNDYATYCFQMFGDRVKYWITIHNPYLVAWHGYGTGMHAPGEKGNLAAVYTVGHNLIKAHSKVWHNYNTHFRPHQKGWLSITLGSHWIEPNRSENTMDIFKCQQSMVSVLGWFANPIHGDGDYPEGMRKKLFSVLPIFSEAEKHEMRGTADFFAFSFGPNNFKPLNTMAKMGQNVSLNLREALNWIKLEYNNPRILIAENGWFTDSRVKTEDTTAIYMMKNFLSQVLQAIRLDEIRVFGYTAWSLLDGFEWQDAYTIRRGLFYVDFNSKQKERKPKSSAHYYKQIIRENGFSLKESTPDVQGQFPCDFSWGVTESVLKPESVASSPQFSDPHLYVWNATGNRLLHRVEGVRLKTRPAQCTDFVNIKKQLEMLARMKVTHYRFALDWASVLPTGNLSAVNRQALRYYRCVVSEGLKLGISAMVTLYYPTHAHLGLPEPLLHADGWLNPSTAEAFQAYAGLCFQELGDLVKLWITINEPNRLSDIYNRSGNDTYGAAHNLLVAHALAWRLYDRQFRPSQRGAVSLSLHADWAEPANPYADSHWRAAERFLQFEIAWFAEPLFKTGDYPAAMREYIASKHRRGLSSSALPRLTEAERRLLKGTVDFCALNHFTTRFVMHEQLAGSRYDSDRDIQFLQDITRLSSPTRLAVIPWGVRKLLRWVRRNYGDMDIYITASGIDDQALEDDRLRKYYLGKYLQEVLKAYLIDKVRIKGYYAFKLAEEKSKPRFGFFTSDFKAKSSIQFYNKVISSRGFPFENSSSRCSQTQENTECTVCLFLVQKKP

The target of experiment [2] is T1, recombinant human β-Klotho. This is another data set of the same source.
For experiment [3], the target named is T1, recombinant human β-Klotho. This is another data set of the same source.
Experiment [4] deals with T1, recombinant human β-Klotho. The source holds these as a separate data set.
Experiment [5] concerns the target T1, recombinant human β-Klotho. This is another data set of the same source.
The target in experiment [6] is T1, recombinant human β-Klotho. This is another data set of the same source.
For the next experiment, the target named is T2, human FGFR1c-Fc (human, UniProt P11362 22-376).
T2 construct: also called huFGFR1c-Fc; huFGFR1c/Fc
T2 sequence: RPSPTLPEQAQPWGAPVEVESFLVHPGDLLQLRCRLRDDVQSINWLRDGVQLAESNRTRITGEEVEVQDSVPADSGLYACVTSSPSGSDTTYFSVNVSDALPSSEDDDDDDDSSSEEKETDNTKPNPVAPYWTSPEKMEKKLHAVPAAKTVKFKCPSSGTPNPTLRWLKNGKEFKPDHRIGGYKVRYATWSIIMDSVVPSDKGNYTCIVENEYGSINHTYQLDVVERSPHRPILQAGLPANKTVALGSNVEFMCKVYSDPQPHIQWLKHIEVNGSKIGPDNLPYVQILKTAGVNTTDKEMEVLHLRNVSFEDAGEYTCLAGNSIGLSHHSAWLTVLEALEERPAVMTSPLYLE

The target of experiment [7] is T1, recombinant human β-Klotho. This is another data set of the same source.

B1: β-Klotho walked dimer BK_R1c_D05 (designed binder)
chain: CAAGQFRCHNSDTCLPGAWVCDGDNDCGDNSDEASCQKRTCHSFNQFECRNGQCIPLHLVCDGVPDCGDNSDETDCGDSHILPFSTPGPST
On to B1, for which the binding result in experiment [1] was “binds”.

B2: β-Klotho walked dimer bKWD01 (designed binder)
chain: CLPDEFQCGSGRCIPQHWLCDGLNDCGDGSDEPPAHCSAPASEPPGSLCRAGEFRCSNGRCVPLTWLCDGEDDCQDNSDEKNCAQPT
For B2, the binding result in experiment [2] is recorded as “binds”.

B3: β-Klotho walked dimer BK_R1c_D15 (designed binder)
chain: CLPDEFQCGSGRCIPQTWVCDGLNDCGDGSDEPPAHCSAPASEPPGSLCRSNQFTCGNGNCIPQPWVCDGEDDCGDDSDEESCKEHT
As for B3, the binding result in experiment [2] is reported as “binds”.

Turning to CVPNQFQCGSGRCLPHPLGCDGVDDCLDGSDEASCAPPT (designed binder) [β-Klotho-binding monomer M26], in experiment [3], the binding result was “binds”.

B4: β-Klotho walked dimer BK_R1c_D22 (designed binder)
chain: CQPDEFTCSSGRCIPQPWLCDGLNDCGDGSDEPPAHCSAPASEPPGSLCRPDEFRCKNGRCIPQTWVCDGEDDCQDSSDETDCESTVRT
As for B4, the binding result in experiment [4] is on record as “binds”.

On to CVSDEFPCRDNNICVLLHLLCDGVDDCLDSSDETGCAKPT (designed binder) [β-Klotho-binding monomer M27], for which the binding result in experiment [3] is reported as “binds”.

B5: β-Klotho walked dimer BK_R1c_D18 (designed binder)
chain: CPPDEFQCRGTKKCLPLAWVCDGDNDCEDDSDEESCASAVHTCQSNEFRCRSGRCIPQHWLCDGLNDCGDGSDESQQCSAPASEPPGSL
Regarding B5, the binding result in experiment [5] is on record as “binds”.

With CSAFEFHCLSGECIHSSWRCDMDWDCKDQPDQLWCALET (designed binder) [β-Klotho-binding monomer M37], the binding result in experiment [3] is reported as “binds”.

B6: β-Klotho-binding monomer bKmutM28 (designed binder)
chain: CPWFHHFKCRNGQRIPLHLVCDGVPDCGDDSDETDCGDSHILPFSTPGPST
For B6, in experiment [6], the binding result is on record as “binds”.

B7: β-Klotho walked dimer BK_R1c_D14 (designed binder)
chain: CLPDEFQCGSGRCIPQTWVCDGLNDCGDGSDEPPAHCSAPASEPPGSLCRSDEFRCGNGRCIPLTWVCDGEDDCQDSSDETGCTTPGHT
Take B7: in experiment [2], the binding result was “binds”.

With CGAGLFTCRSTNICISQVWVCDGVDDCEDNSDEDSCSAPASEPPGSL (designed binder, also called M03mutM01) [FGFR1c-binding monomer M03mut01], the binding result in the experiment with human FGFR1c-Fc was “binds”.

In the case of CSAFEFHCLSGECIHSSWRCDWDLDCKDHPDEVMCALEA (designed binder) [β-Klotho-binding monomer M39], the binding result in experiment [3] is “binds”.

B8: β-Klotho walked dimer BK_R1c_D24 (designed binder)
chain: CRPDEFPCRSTGRCVPRRWVCDGVDDCGDNSDESLAHCQTPTCQPDEFTCSSGRCIPQPWLCDGLNDCGDGSDEPPAHCSAPASEPPGSL
As for B8, the binding result in experiment [7] is reported as “binds”.

For CRSSEFPCHGYSTCISLSLLCDGVDDCADNSDEESCRAAGHT (designed binder) [β-Klotho-binding monomer M34], the binding result in experiment [3] is on record as “binds”.

Regarding CSRAHFHCLSGECIHHHWRCDGGPDCKDKSDEENCPTKRPEEV (designed binder) [β-Klotho-binding monomer M41], the binding result in experiment [3] was “binds”.

For the origin of these results see US20130197191A1 (Amgen, published 2013).
